Patent US20220289816A1, “IMMUNOTHERAPY WITH B*07 RESTRICTED PEPTIDES AND COMBINATION OF PEPTIDES AGAINST CANCERS AND RELATED METHODS” (Immatics Biotechnologies GmbH, priority 2018, published 2022)

Tests used:
[1] = target: HLA-B*07 (Homo sapiens, UniProt P01889); assay: MHC binding assay (UV-ligand exchange, ELISA of stabilized MHC complexes); conditions: peptide exchange yield on HLA-B*07, UV-ligand exchange
Procedure, shortened: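 Binding is reported as exchange yield: an ELISA with HRP-conjugated anti-β2m (A450, TMB) quantified how much test peptide stabilized MHC after UV cleavage of a photolabile placeholder peptide. Exchange monomers were diluted 100-fold and captured on streptavidin-coated plates for 1 h at 37 °C.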

[2] = tested on: CD8+ T cells; assay: In vitro immunogenicity: in vitro T-cell priming assay with aAPCs loaded with peptide/MHC complexes and anti-CD28 antibody, pMHC multimer readout; format: cell-based, human; conditions: Table 10b, pMHC multimer readout after priming of CD8+ T cells
Excerpt: In order to obtain information regarding the immunogenicity of the TUMAPs of the present invention, the inventors performed investigations using an in vitro T-cell priming assay based on repeated stimulations of CD8+ T cells with artificial antigen presenting cells (aAPCs) loaded with peptide/MHC complexes and anti-CD28 antibody.
In order to perform in vitro stimulations by artificial antigen presenting cells loaded with peptide-MHC complex (pMHC) and anti-CD28 antibody, the inventors first isolated CD8+ T cells from fresh HLA-B*07 leukapheresis products via positive selection using CD8 microbeads (Miltenyi Biotec, Bergisch-Gladbach, Germany) of healthy donors obtained from the University clinics Mannheim, Germany, after informed consent.
PBMCs and isolated CD8+ lymphocytes were incubated in T-cell medium (TCM) until use consisting of RPMI-Glutamax (Invitrogen, Karlsruhe, Germany) supplemented with 10% heat inactivated human AB serum (PAN-Biotech, Aidenbach, Germany), 100 U/ml Penicillin/100 μg/ml Streptomycin (Cambrex, Cologne, Germany), 1 mM sodium pyruvate (CC Pro, Oberdorla, Germany), 20 μg/ml Gentamycin (Cambrex). 2.5 ng/ml IL-7 (PromoCell, Heidelberg, Germany) and 10 U/ml IL-2 (Novartis Pharma, Nürnberg, Germany) were also added to the TCM at this step.
Generation of pMHC/anti-CD28 coated beads, T-cell stimulations and readout was performed in a highly defined in vitro system using four different pMHC molecules per stimulation condition and 8 different pMHC molecules per readout condition.
The purified co-stimulatory mouse IgG2a anti human CD28 Ab 9.3 (Jung et al., 1987) was chemically biotinylated using Sulfo-N-hydroxysuccinimidobiotin as recommended by the manufacturer (Perbio, Bonn, Germany). Beads used were 5.6 μm diameter streptavidin coated polystyrene particles (Bangs Laboratories, Illinois, USA).
800.000 beads/200 μl were coated in 96-well plates in the presence of 4×12.5 ng different biotin-pMHC, washed and 600 ng biotin anti-CD28 were added subsequently in a volume of 200 μl. Stimulations were initiated in 96-well plates by co-incubating 1×10^6 CD8+ T cells with 2×10^5 washed coated beads in 200 μl TCM supplemented with 5 ng/ml IL-12 (PromoCell) for 3 days at 37° C. Half of the medium was then exchanged by fresh TCM supplemented with 80 U/ml IL-2 and incubating was continued for four days at 37° C. This stimulation cycle was performed for a total of three times. For the pMHC multimer readout using 8 different pMHC molecules per condition, a two-dimensional combinatorial coding approach was used as previously described (Andersen et al., 2012) with minor modifications encompassing coupling to five different fluorochromes. Finally, multimeric analyses were performed by staining the cells with Live/dead near IR dye (Invitrogen, Karlsruhe, Germany), CD8-FITC antibody clone SK1 (BD, Heidelberg, Germany) and fluorescent pMHC multimers. For analysis, a BD LSRII SORP cytometer equipped with appropriate lasers and filters was used. Peptide specific cells were calculated as percentage of total CD8+ cells. Evaluation of multimeric analysis was done using the FlowJo software (Tree Star, Oregon, USA). In vitro priming of specific multimer+CD8+ lymphocytes was detected by comparing to negative control stimulations.

Row | Peptide exchange [1] | Substance | Wells positive [%] [2]
1 | ++++ (>75% = ++++) | 361 (SPYGSDRLVQL; listed as Homo sapiens) [compound 361] | + (<20% = +)
2 | ++++ (>75% = ++++) | 364 (KPRTPFTTAQL; listed as Homo sapiens) [compound 364] | + (<20% = +)
3 | ++++ (>75% = ++++) | 365 (RPKHFLQML; listed as Homo sapiens) [compound 365] | + (<20% = +)
4 | ++++ (>75% = ++++) | 366 (SPTLRQLDL; listed as Homo sapiens) [compound 366] | ++ (20%-49% = ++)
